Test results reported in the Human Domainome abundance scans (Beltran et al. 2025).
± gives the uncertainty stated by the source.

B1: COUP transcription factor 1, residues 83 to 159; numbered along this chain, P10589 (parent)
chain: HIECVVCGDKSSGKHYGQFTCEGCKSFFKRSVRRNLTYTCRANRNCPIDQHHRNQCQYCRLKKCLKVGMRREAVQRG

Variants of: B1
Assay: abundance fitness (aPCA) (normalised: wild type 0, dead -1); higher = more abundant; growth selection in yeast, the domain comes from the species named
Conditions: Homo sapiens

Abundance fitness of substitutions, site by site:
Q55: C 0.008 ± 0.056 | V -0.003 ± 0.04 | H 0.017 ± 0.052 | I 0.006 ± 0.06 | K -0.021 ± 0.073 | L -0.059 ± 0.045 | P -0.109 ± 0.058 | R -0.074 ± 0.039 | G -0.017 ± 0.037 | E 0.19 ± 0.053 | M -0.126 ± 0.072 | T -0.101 ± 0.051 | A -0.02 ± 0.042 | F 0.069 ± 0.063 | D 0.123 ± 0.051 | W 0.095 ± 0.051 | N -0.083 ± 0.075 | Y -0.039 ± 0.062
V67: N -0.125 ± 0.072 | H -0.157 ± 0.088 | S -0.117 ± 0.045 | F -0.115 ± 0.067 | W -0.325 ± 0.053 | Y -0.18 ± 0.093 | P -0.953 ± 0.14 | I -0.093 ± 0.07 | D -0.398 ± 0.11 | M 0.099 ± 0.045 | Q 0.036 ± 0.046 | C -0.088 ± 0.069 | R -0.16 ± 0.037 | E 0.013 ± 0.04 | A -0.099 ± 0.043 | L -0.118 ± 0.038 | G -0.26 ± 0.039 | K -0.127 ± 0.046
R70: H -0.004 ± 0.085 | D 0.163 ± 0.052 | G -0.152 ± 0.033 | F 0.002 ± 0.12 | C -0.051 ± 0.067 | E 0.135 ± 0.038 | A 0.023 ± 0.038 | I 0.046 ± 0.16
C56: H -0.6 ± 0.2 | Q -0.82 ± 0.28 | A -0.552 ± 0.098 | D -0.815 ± 0.28 | F -0.506 ± 0.17 | M -0.636 ± 0.17 | E -0.87 ± 0.15 | G -0.786 ± 0.08 | K -0.926 ± 0.29 | S -0.723 ± 0.15 | I -0.627 ± 0.19 | V -0.758 ± 0.093 | R -0.886 ± 0.091 | T -1.13 ± 0.31 | Y -0.612 ± 0.35 | P -1 ± 0.27 | N -0.373 ± 0.21
Y58: Q -0.231 ± 0.052 | E 0.027 ± 0.04 | T -0.774 ± 0.09 | W -0.03 ± 0.04 | F 0.072 ± 0.088 | V -0.787 ± 0.073 | H 0.051 ± 0.069 | I -0.866 ± 0.28 | N -0.548 ± 0.11 | A 0.017 ± 0.037 | M -0.312 ± 0.063 | P -0.587 ± 0.08 | D -0.046 ± 0.059 | G -0.18 ± 0.034 | K -0.366 ± 0.066 | L -0.378 ± 0.044 | R -0.458 ± 0.043
R60: S -0.56 ± 0.064 | W 0.139 ± 0.038 | C -0.007 ± 0.052 | I -0.227 ± 0.076 | E -0.503 ± 0.06 | Q 0.197 ± 0.045 | V -0.157 ± 0.037 | L 0.205 ± 0.034 | P -0.602 ± 0.092 | D -0.535 ± 0.11 | A -0.088 ± 0.038 | F 0.132 ± 0.059 | T -0.007 ± 0.046 | N -0.416 ± 0.1 | M 0.283 ± 0.038
R53: M -0.099 ± 0.11 | Y 0.224 ± 0.23 | H -0.231 ± 0.17 | S -0.178 ± 0.076 | T 0.017 ± 0.066 | N -0.044 ± 0.16 | Q 0.12 ± 0.21 | C -0.001 ± 0.11 | D 0.055 ± 0.093 | L -0.081 ± 0.065 | P 0.111 ± 0.088 | V -0.069 ± 0.06 | F -0.495 ± 0.28 | K -0.218 ± 0.14 | E 0.018 ± 0.07 | W -0.288 ± 0.11 | I -0.169 ± 0.17 | A 0.022 ± 0.059
C59: R -0.848 ± 0.069 | P -0.541 ± 0.094 | S -0.853 ± 0.1 | V -0.729 ± 0.068 | E -0.696 ± 0.078 | G -0.789 ± 0.055 | I -1 ± 0.31 | M -0.809 ± 0.13 | W -1.02 ± 0.12 | A -0.668 ± 0.062 | K -0.871 ± 0.14 | F -0.978 ± 0.42 | D -0.729 ± 0.14 | Y -0.789 ± 0.19 | Q -0.801 ± 0.12 | L -0.934 ± 0.09
G68: E -0.524 ± 0.06 | T -0.677 ± 0.075 | D -0.728 ± 0.11 | W -0.666 ± 0.085 | A -0.729 ± 0.069 | Q -0.731 ± 0.1 | C -0.597 ± 0.094 | S -0.593 ± 0.068 | N -0.211 ± 0.085 | Y -0.436 ± 0.12 | I -0.494 ± 0.1 | H -0.775 ± 0.18 | V -0.671 ± 0.059 | M -0.624 ± 0.084 | F -0.609 ± 0.12 | R -0.65 ± 0.049 | P -0.939 ± 0.15 | K -0.747 ± 0.099 | L -0.572 ± 0.064
H52: D -0.092 ± 0.053 | V 0.023 ± 0.042 | Q 0.095 ± 0.047 | K -0.035 ± 0.055 | G 0.035 ± 0.043 | M -0.019 ± 0.052 | A 0.041 ± 0.041 | F -0.068 ± 0.062 | R -0.154 ± 0.042 | Y -0.225 ± 0.067 | C -0.092 ± 0.061 | E 0.08 ± 0.051 | N -0.1 ± 0.055 | S -0.102 ± 0.043 | P 0.09 ± 0.043 | W -0.263 ± 0.075 | I 0.07 ± 0.047
K66: M 0.055 ± 0.043 | F -0.013 ± 0.066 | C -0.229 ± 0.056 | R -0.021 ± 0.034
